Assay results: patent US9289468B2, “Fusion protein comprising circularly permuted form of trail/Apo2L, coding gene and use thereof” (Beijing Sunbio Biotech Co. Ltd., priority 2011, dated 2016)

Columns and labels:
H460 cells = test: Cell survival by MTT assay with or without Caspase-8 inhibitor zIETD-fmk; type: cell-based, human; settings: 24 h
Description: H460 cells were incubated with NCPT-1.M1 (1.2 or 10 ng/ml) in the presence or absence of Caspase-8 inhibitor zIETD-fmk (concentration of 30 μmmol/L, added 1 h earlier than NCPT-1.M1) for 24 h, and then cell survival rate was measured by MTT assay.
H460 cells were incubated with NCPT-1.M1 of 1.2 ng/ml and 10 ng/ml (the culture method is same as the above) for 24 h, and cell survival rates measured by MTT assay were 60% and 16%, respectively. […] Caspase-8 inhibitor zIETD-fmk (Santa Cruz) was added, and 1 h later, 1.2 ng/ml or 10 ng/ml NCPT-1.M1 was added and co-incubated for 24 h, then, the resulting cell survival rates were 100% and 90%, respectively.

[1] = tested on: NCI-H460 human lung tumor; test: Combination with paclitaxel and carboplatin on human lung cancer xenograft tumor; type: in vivo, Balb/c nu athymic nude mice; settings: H460 tumor nude mice
Description: 5-6 weeks old Balb/c nu athymic nude mice ♂ (provided by Institute of Experimental Animals, Chinese Academy of Medical Sciences) were subcutaneously inoculated with NCI-H460 human lung tumor. When the tumor grew to the size of about 150 mm3, the mice were divided into following and administered: normal saline control group (ip.), NCPT-1.M1 monotherapy group (15 mg/kg, i.p., once a day for 9 consecutive days), chemotherapy group (PC regimen: paclitaxel 30 mg/kg i.p. and carboplatin 60 mg/kg i.p., administered once on the first day), NCPT-1.M1 combination chemotherapy group (administration manner and dosage of each drug are same as the above). During the experiment, the tumor length diameter (a) and wide diameter (b) were measured every two days with a vernier caliper, and tumor volume (, TV) is calculated according to the following formula: TV=½×a×b^2. From the above, the relative tumor volume (RTV) was calculated according to following formula: RTV=Vt/V0. Wherein V0 is the tumor volume measured on the day of the administration, but before administration (i.e., d0), and Vt is the tumor volume measured every time. The relative tumor proliferation rate T/C (%) is used as an evaluation index.
T/C %=RTVT/RTVC*100%. (RTVT: RTV of the treatment group; […]: RTV of the negative control group).

NCI-H460 cells [2] = test: Assay of killing activity on lung cancer cell line (crystal violet, IC50); type: cell-based, human
Description: The NCI-H460 cells (ATCC) were cultured in flasks until logarithmic growth phase, digested with 0.25% trypsin (Amresco), collected by centrifugation (1000 rpm, 5 min), resuspended in RPMI1640 medium (Invitrogen) containing 3% fetal bovine serum (FBS), counted and adjusted to 1.5×10^5/ml cell suspension, added into 96-well culture plates (Nunc) at 100 μl/well, and incubated at 37° C. in 5% CO2 incubator overnight. The sample to be tested was diluted to a certain concentration with 1640 medium containing 3% FBS, and further diluted at 4-fold dilutions (8 dilutions). The supernatant in the culture plate was discarded, and serial dilutions of the sample to be tested was added into the plate at 100 μl/well with a negative control and blank control set aside, incubated at 37° C. under 5% CO2 for 20-24 hours. Following examination under microscope, the supernatant was discarded, each well was added 50 μl 0.05% crystal violet solution (50 mg crystal violet was dissolved in 20 ml anhydrous ethanol, and water was added to the volume of 100 ml, then stored at room temperature) and stained for 3-5 minutes. The crystal violet was carefully washed with flowing water, the remaining water was removed by spin-drying, a destaining solution (50 ml distilled water, 50 ml anhydrous ethanol, and 0.1 ml glacial acetic acid were thoroughly mixed and stored at room temperature) was added at 100 μl/well, then the reading at OD570 was measured on a microplate reader (Bio-Rad 680) (reference wavelength of 630 nm). The inhibitory concentration 50 (IC50) of each sample was calculated by a four-parameter Logistic fitting using Sigmaplot10.0 software. The IC50 for CPT and each mutant of NCPT-1, NCPT-2, and NCPT-3 were calculated, and the activity change of each mutant was represented as a ratio of the IC50 of each mutant to that of CPT (Table 1).

NCI-H460 cells [3] = test: Internucleosomal DNA fragmentation (agarose gel electrophoresis); type: cell-based, human; settings: 15 ng/ml, 2 hours
Description: FIG. 5. The agarose gel electrophoresis analysis of internucleosomal DNA fragmentation of NCI-H460 cells after incubated with NCPT-1.M1 for varying time.
Marker: 200 bp-2000 bp DNA markers with 200 bp interval;
Control: solvent control;
2 h, 4 h, 6 h: represent incubation with 15 ng/ml NCPT-1.M1 for 2 h, 4 h, 6 h, respectively.
NCI-H460 cells at logarithmic growth phase were incubated with NCPT-1.M1 (a final concentration of […]) for 2 h, 4 h, 6 h, and the medium control group was not added with NCPT-1.M1. All adherent and floating cells (approximately 5×10^6) were collected, and DNA was extracted (Wen Jinkun, Principles and experimental techniques of medical molecular biology, 236-237 (1999)). DNA sample was removed and mixed with 6× loading buffer, and subjected to 1.8% agarose gel (a final concentration of ethidium bromide of 0.5 μg/ml) electrophoresis. The gel was observed under ultraviolet light source and photographed, and analyzed for DNA fragmentation. […] To the contrary, in the DNA electrophoresis of the medium control group, a band corresponding to a macromolecule is very near to the loading well, and there is no DNA fragmentation ladder. With the increasing incubation time with NCPT-1.M1, the DNA ladder becomes weaker and vague, and is illegible (FIG. 5), which might be due to DNA being degraded into smaller fragments.

RPMI8226 tumor = test: Combination with melphalan and prednisone on human multiple myeloma xenograft tumor; type: in vivo, Balb/c nu athymic nude mice; settings: NCPT-1.M1 15 mg/kg ip x10 days; melphalan 0.75 mg/kg po x5 days; prednisone 10 mg/kg po x10 days
Description: Male Balb/c nu athymic nude mice (Beijing Huafukang Biotechnology Co., Ltd.) were subcutaneously inoculated with 5×10^6 RPMI8226 tumor cells/mouse. […] The tumor volumes were measured with a caliper every two days.

[4] = NCPT-1.M1 15 mg/kg i.p. x9 days, paclitaxel 30 mg/kg, carboplatin 60 mg/kg i.p. once day 1

B1: NCPT-1.M1: MG+His6+NCPT-1 fusion protein, SEQ ID NO: 5 (protein)
chain: MGHHHHHHTLSSPNSKNEKALGRKINSWESSRSGHSFLSNLHLRNGELVIHEKGFYYIYSQTYFRFQEEIKENTKNDKQMVQYIYKYTSYPDPILLMKSARNSCWSKDAEYGLYSIYQGGIFELKENDRIFVSVTNEHLIDMDHEASFFGAFLVGGGGGGRVAAHITGTRGRSNT
modifications: NCPT-1.M1 polypeptide sequence
**Q.** How did the cell survival rate (H460 cells; 1.2 ng/ml, 30 μmol/L zIETD-fmk added 1 h earlier) turn out when B1 was run?
**A.** Its cell survival rate is 100%.

**Q.** And the cell survival rate (H460 cells; 1.2 ng/ml, no inhibitor)?
**A.** Its cell survival rate is 60%.

**Q.** And the cell survival rate (H460 cells; 10 ng/ml, 30 μmol/L zIETD-fmk added 1 h earlier)?
**A.** Its cell survival rate is 90%.

**Q.** What about the cell survival rate (H460 cells; 10 ng/ml, no inhibitor) of the same molecule?
**A.** Its cell survival rate is 16%.

**Q.** What about the “Body weight(g) begining” value [1, 4] of the same molecule?
**A.** The value was 19.9 ± 3.08 g.

**Q.** What about the “Body weight(g) ending” value [1, 4] of the same molecule?
**A.** The value was 20.9 ± 3.32 g.

**Q.** What about the RTV ([1]; same regimens) of the same molecule?
**A.** Its RTV is 7.32 ± 3.736.

**Q.** What about the T/C ([1]; same regimens) of the same molecule?
**A.** The T/C was 43.9%.

**Q.** And the “Tumor size(mm^3) begining” value ([1]; same regimens, begining)?
**A.** The value was 156 ± 82.6 mm^3.

**Q.** What about the “Tumor size(mm^3) ending” value ([1]; same regimens, ending) of the same molecule?
**A.** The value was 867 ± 255.7 mm^3.

**Q.** And the “Ratio of IC50 of mutants to IC50 of CPT (H460 cells)” value (NCI-H460 cells [2]; 20-24 hours, crystal violet)?
**A.** The value was 0.1.

**Q.** What about the “killing activity compared to that of CPT” value (NCI-H460 cells [2]; based on IC50) of the same molecule?
**A.** The value was “significantly higher than that of CPT”.

**Q.** What about the DNA fragmentation ladder (NCI-H460 cells [3]) of the same molecule?
**A.** The DNA fragmentation ladder was “showed obvious ladder”.

**Q.** What about the “mice in which the tumors completely disappeared” value (RPMI8226 tumor) of the same molecule?
**A.** The value was 16%.
